Test results reported in patent publication US20250235548A1, “ANTIBODY-DRUG CONJUGATES TARGETING NAPI2B AND METHODS OF USE” (Zymeworks BC Inc., priority 2022, published 2025).
Entries after “also recorded” stand apart in the source; their conditions may differ.

Tested on: NaPi2b-negative EBC-1 cells
Test: Bystander activity, EBC-1 mono-culture vs co-culture with HCC-78 (Examples 19 and 34)
Assay type: cell-based
Settings: for bystander activity (in words): 5 nM test article; for bystander activity (in words) / Average EBC-1 % viability in co-culture / Average EBC-1 % viability in mono-culture: 4 days
Procedure: The ability of v29456 ADCs to exert a bystander killing effect on cancer cells was assessed according to the method described below. Bystander killing can occur after target-specific uptake of an ADC into an antigen-positive cell. In this case, catabolism of the ADC results in release of payload or an active catabolite, which then crosses the cell membrane of nearby cells to elicit their death.
Cell lines used were HCC-78 (high NaPi2b expression) and EBC-1 (negative NaPi2b expression).
(§1) NaPi2b-positive HCC-78 and NaPi2b-negative EBC-1 cells were seeded either as mono-cultures or co-cultures in a 48-well plate at 15,000 cells and 5,000 cells, respectively, in 100 μL assay media (RPMI1640+10% FBS). ADCs were diluted to 10 nM in assay media and 100 μL was added to the cell-containing plates (5 nM final ADC concentration). Cells were incubated with ADCs for 4 days under standard culturing conditions (37° C./5% CO2). […] After incubation, cells were washed in FACS buffer, resuspended in 70 μL FACS buffer per well, and 35 μL per well were analyzed on a BD LSRFortessa™ Cell Analyzer (BD Biosciences, Franklin Lake, NJ). Dead cells were excluded by gating on YO—PRO®-1 staining. The number of HCC-78 and EBC-1 cells were determined by the number of events in the Alexa Fluor®647 positive (NaPi2b-positive) and Alexa Fluor®647 negative (NaPi2b-negative) gates, respectively. Percent viability was calculated as the number of cells in treatment condition divided by the number of cells in the no-treatment condition.
(§2) Bystander effect was calculated by comparing the viability of NaPi2b-negative EBC-1 cells treated as mono-culture (black bars) with that of the cells treated as a co-culture with NaPi2b-positive HCC-78 cells (grey bars). A greater decrease in viability in co-culture compared with mono-culture indicated a greater bystander effect.
Bystander killing can occur after target-specific uptake of an ADC into an antigen-positive cell, as described in Example 19. Cell lines used were HCC-78 (high NaPi2b expression) and EBC-1 (negative NaPi2b expression). Surface NaPi2b expression for these cell lines were measured as described in Example 15.
[…] […] The human antibody variant v29456 conjugated to MC-GGFG-AM-DXd1 was included as a positive control.
as §1, with “Briefly, NaPi2b-positive HCC-78” for “NaPi2b-positive HCC-78”, “10 nM or 40 nM in assay” for “10 nM in assay”, “plates (5 nM or 20 nM final” for “plates (5 nM final”, “resuspended in 60 μL FACS” for “resuspended in 70 μL FACS”, “cells in each treatment condition” for “cells in treatment condition”
as §2, with “indicates” for “indicated”

Row | Substance | bystander activity (in words) | Average EBC-1 % viability in co-culture (5 nM ADC, co-culture with NaPi2b-positive HCC-78, relative to untreated blank) | Average EBC-1 % viability in mono-culture (5 nM ADC, relative to untreated blank) | % Bystander activity (5 nM ADC, viability in mono-culture compared with co-culture) | % Bystander activity (5 nM, Biological Replicate 1) | Average EBC-1 % viability in co-culture (5 nM, Biological Replicate 1, co-culture with HCC-78, relative to untreated blank) | Average EBC-1 % viability in mono-culture (5 nM, Biological Replicate 1, relative to untreated blank) | % Bystander activity (20 nM, Biological Replicate 1) | Average EBC-1 % viability in co-culture (20 nM, Biological Replicate 1, co-culture with HCC-78, relative to untreated blank) | Average EBC-1 % viability in mono-culture (20 nM, Biological Replicate 1, relative to untreated blank)
1 | palivizumab MC-GGFG-AM-DXd1: "palivizumab (v22277) MC-GGFG-AM-DXd1", negative control | negative bystander activity; also recorded: negligible bystander activity | – | – | – | – | – | – | – | – | –
2 | palivizumab MCvcPABC-MMAE: "palivizumab (v22277) MCvcPABC-MMAE", negative control | negative bystander activity; also recorded: negligible bystander activity | – | – | – | – | – | – | – | – | –
3 | v22277-MCvcPABC-MMAE: negative (non-NaPi2b targeting) controls palivizumab (v22277) MC-GGFG-AM-DXd and palivizumab (v22277) MCvcPABC-MMAE | – | 95.8% | 86.4% | −9.4% | 7.5% | 81.7% | 89.2% | 7.4% | 84.1% | 91.5%
